Assay results from the NTF2 design screens of Basanta et al. (2020).

assay: protease stability score; higher = more stable; yeast display proteolysis, trypsin and chymotrypsin;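 also: relative to predicted unfolded state with 0 unfolded-like and 1 meaning tenfold more protease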

First: SEDQEIAVKLLHEMMEALRTGDEDYLRRLFDPNMRFNQGDKTHHGMDWVHSFLRRYDYFEVRHVRVHHVEVQGEKIIIDGRLEGSIRVDGVLQENEISVIFIIIKINGKWFVQTIRFN
Second: SEEEELAERFYEKFLRLARTGDEDELKRLFDPHVRHYVDGRELIGRELLVKFLIEWRVHDSEIREVRIQGDKLWFNTVIHGNFNGVETKQEMEVRSRKIDGQWFATEVQIK
The protease stability score of the first is higher: 1.21 for the first, 0.694 for the second.

First: DEEDELLMKVLTEWFHALRTGDEEKLDELADPNVRIEIGDKELHGMEVWQEYLRRYDHDRQDKVHFRTHEKQGNKLILDVEEDVVIEVNGKRIRTHVRSEIILVKINGRWVFTSIIVH
Second: DEDKDKVRRWAEDFIRDLTTGDFDSLRREADPNYRIEVNGQDHHGMEFHLWVLDHLGLDNIHTELRDSEVQGDKAHNDIRITYNGKEMTVILIVDKVNGKWFVRKIRIE
The protease stability score of the first is lower: 1.34 for the first, 1.72 for the second.

Compared with “DEDKESAEEAFKVWVRDLMTGDEDSLRRLVDPRTLVEVGDKHFHGRDMFVHLEKLQRERADHIRIELHDFDIQGEKIHLDVRVILEQGEKRVFLRTHYLILKVNGRWIVKSLWIQ”, “DDETDRSEKVAQMFVDLLTTGDWERLRHLMDPHVRMDINGQESHGRENVFRFFQKIRERLGLDRFHIEVTHIDVQGDKALWHGTLNINGQEHEVIIRIDVVDGRWHEVRMEVR” is higher in protease stability score: 0.921 for the first, 2.62 for the second.

First: SEEEEYAREFLERHLHSLKTGDWREEHKQADPEVRLHIGDKEFHGREIFVKIQREILEQADHLRIHIRRVHVQGDFLHIDGELRIRINGREHYIDRKVIVWKFNGRWHLHEVSIE
Second: SEREEYLEEMFHLFIHYLLTGDWELLINLMDPHARNEIHINGVIFLVHGRELVKEIWERFRKHIRIKHIHVEELRVQGDKAESHTWVHYTIDGRESRVFTRVEIRIIDGVVRRISVEIR
The protease stability score of the first is lower: 1.39 for the first, 1.72 for the second.

First: DERHQDLREVLTRLMHLLLTGDWDEFHRLADPSTQLEVGDFHFHGWEMVVEFLKRFYFHIRLRRFHIEHVRVINGRIDSDTRVESEVNGVRDVERTHVHLNKVDGRWVIKRMHME
Second: DELEHLANEWMKRVIHHLETGDEESWMKYADPNVRTEINIGDKTEERHGRERYIDFIRRLGFDHVHIHDQRIHHVNGVLFIHLNIKIKQGDYLFTSELDIIVRKIDGQWFVRSINIKVD
The protease stability score of the first is higher: 0.966 for the first, 0.601 for the second.

First: SEHEEKSKEASEQMFQILRTGDWHKWLELLDPHYQLEIGDKRFHGMEISSELLRHLLEELGVERVEVYVKHQETQGDKVINDGSVDINGRELRMILYARKVDGRWVLKSMKVK
Second: TEHEEMIREALEFLIRLLETGDFERLHHLADPNVRLEQGDKEFIGREEWLRLFTEEIRQYKGITIHIHEVEVVDGRVYINGTVHQGDKIRRVIWVIIKIDGKWRIHSVHIR
The protease stability score of the first is lower: 1.39 for the first, 2.19 for the second.

First: DELERILKEQAETIMHFWRTGDEESFNHMADPDYWLRVGDKNVHGREKASEYLRHWLEHIRIHDVKIRDKRVFNGRVFIDMREDGNVDGKRTTRTLHVIIVSIDGKITMVEIRLE
Second: SDEEERIRRVAEHILHLILTGDEDRWEDMMDPNVRVHIDWNGVKIHLHGREKAAEFFKRFKNIRIEIHSVRIIGEKNDSDERLHVNGQTRDLHNHIIVVNGRIEHMEIRVR
The protease stability score of the first is lower: 0.996 for the first, 2.66 for the second.

Compared with “DEDEELVETHIRHEIRSAKTGDEESLHRLLDPNTRIEIGDKVFVGRETFTKWLRKLLHDAGVSKFEVHVRDMEIQGEKLILDGEWHINGVTIRTRIIVHKVNGRWHNKHMQME”, “TEVEKKAREINKELSSALLTGDEHIMRRLADPHVRIFFNGQHLVGMEEMMKVLLHLRIKWKDIKIEDVKIQGDFMHIDTIEHGILEVGDKRIEFHREVEIYITKINGRWMIEELTYR” is higher in protease stability score: 0.582 for the first, 1.34 for the second.

Going from “DHHEELRHWFLEIYRRIMITGDEKELEKLIDPHAKLRINGREHVGMEYIQRIFDLLRHEIRFKDMDIREYHLVDGQIDDHSVLTLHINGKEVTRETRIVNRKVNGRWKIEVESIH” to “DELEEDVRSSLKVLLHSHRTGNEELNEKMADPNARVTVDGVEFHGREEMVHWISHIRVERFILRSVHFQGDKLHIDGESDGVVNGRRWRRRTHIIELKVDGKWVLKSLIFE”, the protease stability score rises from 0.622 to 1.46.

Compared with “DERHEHAKEYLEMWLHSIFTGDERTLMELVDPNAKHLVNGRERHGRDELSRILIHIRMHVRDSKLRDMRVVGDKAIIHTEVDEELHFNGRTVRMIVEVEIYLFKVNGKWVFTEIRII”, “DEEEEYAIEFVILHIEALKTGDERKLEHLMDPHYKLDYNGRKVHGREQWLRFLNEWRVHIHDIKVDDHDVVNGRVILHVTIHGTVIFDGRNIRTHHEQEYVLHKVNGRWHFHSMIVR” is higher in protease stability score: 1.29 for the first, 1.5 for the second.

First: TEDEKLSEDMTQHFIELLFTGDFDKISELADPNVRIHAENRTLVGRESFKRLMKKEIEFFKGARFHIEDLHIYDGRVDIHEIVSYGEFVIRRTIHSHKINGKWLETEVRLG
Second: DELTEEVRKFLERLWRATHTGNEKEFWELVDPNVRDDINGRILHGRETVIRIITELGFKVRHNEFRDERVVGEYATVHGNFNVDINGKEHEVDVEIIVEKVNGVWTLKYRHFR
The protease stability score of the first is lower: 0.929 for the first, 1.54 for the second.

Going from “DEEDEERTWAWEIFVKIIRTGDEQKLHEMADPHVRLHVGDKHEHGREELVKFFIDYILSLGVDHIEVHLKREDRINGRIHIDSKLRIEVGDKEITNNTHVLFLKVDGKWILKQVEIK” to “DDEEKEHLEMLKQFWENSYTGDERTLLHLLDPHARFILEFNGKSLQYHGREEVARFLRWLLEHIRVKDSHIHDIDVIGEKAVVDGRMHGEIDGREVEKETRLFIVVIDGRITKVFIEVR”, the protease stability score rises from -0.11 to 1.6.

Going from “DEENKSMEEMIRLLTEALRTGDFELIHHLADPRMRILIGDKELHGWESWAQFVVKLGVKHTRIQIDDFRIIDGRINLHTHMEIDIDGRRTSSHTHMETIKVDGRWLITVLKIR” to “SHVEQESREIFEQIVRNLKTGDEDLLTELLDPNTLHIVNGVEIHGMEIVAKFLLDWRRKVKNIRIHDEEERHIEIYGDKVISHVDMDGIVNGRRVRRENIWIAEKVDGRWVIREVEVR”, the protease stability score rises from 1.1 to 1.94.

First: DEIEHAVRLAYERWLHEFETGDEEETLRNADPDTMIVINGRHLHGREHFTRWLKRIDHQHMHHEDFTHIDHQGDKLHLNVHVSIEVEINGVRYVLEHENEIVQTKIDGQWILTYIIIR
Second: DEEEDRIMKMLRLIILEIVTGDEEKFRHLFDPDARFIVGNKTYHGWEMWHEEFRHIRITEMELEHYDVINGRAHLHTRLRGKINGREIDTETRLIVVVINGKIHSIELRIH
The protease stability score of the first is lower: 1.25 for the first, 2.18 for the second.

Going from “HEEEQEIEKIVEDILRAWETGDWKTFYELADPHTKHTLIQGDKHIHRHGRDRMSDLLEELLKRFKGAIVDIKDIKWIDGQLNMTGELQIGDKKHKVHLHMNFIDGKIKRIEIRVD” to “DEEEEALEEVLRLLSKAILTGDEDQMRELVDPHVRVHVGDKDLIGWDRYKRHTKEMRIIIHRFELRDKRRVGNKLEFDGHMDYELIVNGRTWKHREDMFMVIVKVNGKWHIHYEQVD”, the protease stability score falls from 1.13 to 0.88.

Going from “LEEEEETKEMNDKMRHVMETGDEDSFRKLADPHVRVDINGREFHGMDNAAEIMSHLRIHKFHVHDTRNINGKVQVESRLTRIIDGKKQHVRTEWIIVKIDGQWIFREWIVK” to “SEETEIIERAMKILLEILETGDEDRQRELMDPHYRLLIGDKVFHGREWAIKWAREIRVDRVELEDREIQGEKLLLHGHIHIRVGDKHHTMEVLIIVEKIDGRWRTHSRHVK”, the protease stability score rises from 0.58 to 0.651.

Compared with “DEEKDIIERMSKMITRSWETGNEDWLSELADPDVKFHINGRDHHGMEEMARLWLELVLKLGVKHQTIEHLSIQGDKVHIHSRSDFNGRHMKLEIRVLLVNGKIRSVTVHLHVD”, “DEEEKLDREIEKTMKETIETGDEHLLSELIDPHARLVFNGKDFHGMEEATRFWYELVTRFKNLTFVPKDVKVFDGRLIMHGINLVNGVERRLTIVVEKINGRWVIRSIHIK” is higher in protease stability score: 0.633 for the first, 1 for the second.

Compared with “KEQDHLIKNVLERLFRAFHTGNEEELEKLIDPHAMIIIGDKHFHGREEVLHTLVNLVNEIRFRDMELKDSRLFDGRVNIDLDEHIRQGDKHHLYEVHLILYKFDGRWFIRKFEIR”, “DDEDRHASKLYHIIVHLEVTGDFEKWRDYADPNVRIVIGDKEFHGRELFMEWLKEIRLERFRIKHIKVIGEKTNSTTSFEVNVNGVRIENDTRIHIHVIDGKVHSVHFEIR” is higher in protease stability score: 1.46 for the first, 1.57 for the second.

First: DENRRHELEIAQILLHAWVTGDEHILRRFADPDMQFVLEFDGKTIDLHGRELVISFFRDLVDKLGVDHITLESHRVINGRTHIDTRVIFNGVDREEKIHIHIVNGRLKHLELRVH
Second: DELEELEKEAIKESEDILRTGDEERILRLADPNVRVDIDGVVRHGREWWTRLFSDELRKFKGARIRLKEIRSFDGRIRIDTTLEVDGVTRDMYVISEKVNGRWIIRSIHYE
The protease stability score of the first is lower: 1.22 for the first, 1.33 for the second.

First: DEKRKEMEQLARIIIHLWETGDEEKWREYADPNTRLDVDGRNSHGMHNTLEVLRRRLEELGFDHVEMEIKHITVIGDKAQINGKVHLYWNGKTIDVPSEIIIVIINGRLHSIELRHE
Second: SEDHERMKEMIELTLHAIFTGDEDLLKRLLDPHTRIVVNGQDRHGRHALEWFLSVLGIKHIHYEIVRTHLVNGVLHNHIHGHLNVNGKTYELEVEITIRKINGRWLMHVVQWDII
The protease stability score of the first is lower: 1.44 for the first, 1.99 for the second.

Compared with “ETEEQYAEELARLYIEIWETGDEETLHKLADPDVRNDVDGKQLHGRESMIEFWRKLGISNVHFILHRLHVKTQGDFIDIHIDGQLDINGKVTRVEHRLHVEKYNGRWLLKEIYIKRD”, “DRRQEELRRMAEIWIHNELTGNEDEFRKLADPNVRFHLHVNGRVLSSHGMETLVKLFRELLEEWRIKEIHIHDMHIQGDKVHLEGRRRGTIGDKEDIYEVEIHVVIVNGKMKEITVIIK” is lower in protease stability score: 1.72 for the first, 1.51 for the second.

Going from “DEHDERQHKIHRRFFEAYMTGNEDEMLQLADPNVRLHIGDKDLIGRELFSTWVRELHDRFPGMRIHIEDEDIQGEKSHHRVRIHVDGVTRNVRINQDWYNGRLREMSIDIR” to “DEDRKVAEEVIRIITHESRTGDWDRISENLDPDARVEVDGRHVHGRERFVEFVLHARIEHSHVHDVSMINGRLKVDTELRGIWNGREIDTQVYIISLKIDGRWYLESIHIS”, the protease stability score rises from 0.353 to 1.34.

Going from “TESKQEEHLALEVIEHAYRTGDEHELHELLDPHTRIFIGDKTHHGREFYLRVLKRERDELGVDKIEIIIRRVEIQGDKMIMDGELRVNGKTVRVHLILRKYDGRWLIKHITHE” to “DEDTTMLEEMARLLVEMWLTGDEEKIYKLADPDVRLNVNGKDQIGREESEKLRRELLETLGIKHFEVEDLKIRLIDGRVNVHIYGIVKFNGVNVKMILDHHSRKVNGRWRIEHLRIIHI”, the protease stability score falls from 1.47 to 1.32.

Compared with “SEDETLAEEAVEEFEKHMETGDEDELIRLVDPHVKIHFNGRDIHGWKWIHVFLRDLGVDVKRIHVKDIEVFNGVVLLRGEFRFRFNGQDFSKDVENIIVKVDGRWFHHEIRIR”, “SEEEEIARRFISVWLHAFHTGDEKRLEEMIDPHVRVDYNGVEIIGRENWIEFMLTIMRNLGFNHIRVELDHLDFQGDKMRLETTLKRKVNGREERIDTRIHVKKIDGQWIFTHELYK” is lower in protease stability score: 1.85 for the first, 0.795 for the second.

Going from “DEEDERNLKLFHLAMLASITGNEELIEQLVDPDVRIEINGRDKHGRETLIKLLERFDHFQWHRFHWRRLEIQGNKIIMLLEVHGTIHIGEFKIKLQTDTISIVTKIDGRWTIKELYIK” to “SEELELAKWLLEEWIRAVETGDERTLKELADPDVKMHIGDKNHIGWEEYVRFLRHLRITVRRMEVKHMHVFDGRIHIHGHFDIEINIGDKHLRRHHDVEIILVVVDGKLTSIEIRNH”, the protease stability score falls from 1.62 to 1.5.
